# From patent publication US20040146964
# T1: synthetic polypeptide of HIF-1α residues 556-574, unmodified
# T1 chain: DLDLEMLAPYIPMDDDFQL
# T2: C. elegans HIF-α homologue, wild type
# T2 chain: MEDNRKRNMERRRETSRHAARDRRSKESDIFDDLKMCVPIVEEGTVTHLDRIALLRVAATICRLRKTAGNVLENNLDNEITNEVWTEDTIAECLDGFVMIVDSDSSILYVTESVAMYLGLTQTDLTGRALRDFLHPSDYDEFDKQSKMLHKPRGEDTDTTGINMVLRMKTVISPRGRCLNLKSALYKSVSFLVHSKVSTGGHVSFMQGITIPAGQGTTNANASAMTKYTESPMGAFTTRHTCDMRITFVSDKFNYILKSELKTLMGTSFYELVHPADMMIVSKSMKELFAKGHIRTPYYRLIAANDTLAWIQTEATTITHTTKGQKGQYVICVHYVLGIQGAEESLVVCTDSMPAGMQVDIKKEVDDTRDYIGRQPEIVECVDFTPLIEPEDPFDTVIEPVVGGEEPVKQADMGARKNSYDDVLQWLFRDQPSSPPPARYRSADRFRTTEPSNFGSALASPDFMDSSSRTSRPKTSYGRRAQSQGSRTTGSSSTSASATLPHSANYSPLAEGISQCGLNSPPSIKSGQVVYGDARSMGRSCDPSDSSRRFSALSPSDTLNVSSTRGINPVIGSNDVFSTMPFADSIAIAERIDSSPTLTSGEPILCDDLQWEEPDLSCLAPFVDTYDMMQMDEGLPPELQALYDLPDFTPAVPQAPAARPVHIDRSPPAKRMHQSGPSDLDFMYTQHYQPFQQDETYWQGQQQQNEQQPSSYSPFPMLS
# How the values were obtained:
# [1] = target: T1, synthetic polypeptide of HIF-1α …
# [2] = target: full length HIF-1α P402A
# [3] = target: human HIF-1α, full length wild type
# [4] = target: full length HIF-1α double mutant P402A+P564G
# [5] = target: full length HIF-1α P564G
# [6] = target: T2, C. elegans HIF-α homologue, wild type
# full length HIF-1α double mutant P402A+P564G, sequence (chain, as listed by the source P402A P564G): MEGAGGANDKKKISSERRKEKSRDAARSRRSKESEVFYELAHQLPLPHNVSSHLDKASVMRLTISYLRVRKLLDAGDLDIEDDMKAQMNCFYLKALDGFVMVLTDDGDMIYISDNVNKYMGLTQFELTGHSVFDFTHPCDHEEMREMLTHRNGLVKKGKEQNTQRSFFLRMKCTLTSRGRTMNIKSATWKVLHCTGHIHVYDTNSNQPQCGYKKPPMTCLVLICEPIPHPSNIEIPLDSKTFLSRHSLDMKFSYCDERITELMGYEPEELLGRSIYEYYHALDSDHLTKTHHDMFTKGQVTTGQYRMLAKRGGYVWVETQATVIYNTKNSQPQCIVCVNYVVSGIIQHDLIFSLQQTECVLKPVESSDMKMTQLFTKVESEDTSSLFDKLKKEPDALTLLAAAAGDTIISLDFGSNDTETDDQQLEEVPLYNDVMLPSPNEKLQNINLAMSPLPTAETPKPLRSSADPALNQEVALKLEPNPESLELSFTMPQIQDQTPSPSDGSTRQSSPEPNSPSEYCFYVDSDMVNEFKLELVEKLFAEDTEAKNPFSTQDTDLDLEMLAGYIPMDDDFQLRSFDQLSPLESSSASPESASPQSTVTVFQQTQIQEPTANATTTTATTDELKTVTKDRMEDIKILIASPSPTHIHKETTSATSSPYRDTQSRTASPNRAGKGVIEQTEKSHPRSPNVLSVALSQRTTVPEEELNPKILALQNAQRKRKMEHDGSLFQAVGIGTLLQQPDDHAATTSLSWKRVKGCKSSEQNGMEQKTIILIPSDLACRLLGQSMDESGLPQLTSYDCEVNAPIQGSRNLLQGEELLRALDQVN
# full length HIF-1α P402A, sequence (chain, as listed by the source P402A): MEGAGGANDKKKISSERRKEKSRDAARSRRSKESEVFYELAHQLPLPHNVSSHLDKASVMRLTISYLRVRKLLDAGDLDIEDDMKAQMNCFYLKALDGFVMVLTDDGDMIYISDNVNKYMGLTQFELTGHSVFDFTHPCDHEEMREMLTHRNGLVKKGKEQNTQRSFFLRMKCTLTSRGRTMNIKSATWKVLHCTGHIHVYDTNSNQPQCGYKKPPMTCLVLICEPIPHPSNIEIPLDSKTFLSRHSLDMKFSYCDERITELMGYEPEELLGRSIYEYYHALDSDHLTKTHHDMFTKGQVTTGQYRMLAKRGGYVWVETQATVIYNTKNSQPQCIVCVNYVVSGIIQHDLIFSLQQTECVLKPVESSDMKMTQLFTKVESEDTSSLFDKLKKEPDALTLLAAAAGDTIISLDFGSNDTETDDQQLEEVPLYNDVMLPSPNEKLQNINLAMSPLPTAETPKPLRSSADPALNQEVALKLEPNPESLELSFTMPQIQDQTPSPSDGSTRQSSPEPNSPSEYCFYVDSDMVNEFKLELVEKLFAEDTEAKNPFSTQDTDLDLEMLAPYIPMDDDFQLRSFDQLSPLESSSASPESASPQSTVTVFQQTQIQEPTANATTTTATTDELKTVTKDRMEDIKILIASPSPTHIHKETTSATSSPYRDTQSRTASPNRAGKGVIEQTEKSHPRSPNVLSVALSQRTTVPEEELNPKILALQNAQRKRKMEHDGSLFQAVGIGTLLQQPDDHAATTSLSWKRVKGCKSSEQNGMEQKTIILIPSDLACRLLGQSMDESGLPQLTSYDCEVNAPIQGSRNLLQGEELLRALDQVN
# full length HIF-1α P564G, sequence (chain, as listed by the source P564G): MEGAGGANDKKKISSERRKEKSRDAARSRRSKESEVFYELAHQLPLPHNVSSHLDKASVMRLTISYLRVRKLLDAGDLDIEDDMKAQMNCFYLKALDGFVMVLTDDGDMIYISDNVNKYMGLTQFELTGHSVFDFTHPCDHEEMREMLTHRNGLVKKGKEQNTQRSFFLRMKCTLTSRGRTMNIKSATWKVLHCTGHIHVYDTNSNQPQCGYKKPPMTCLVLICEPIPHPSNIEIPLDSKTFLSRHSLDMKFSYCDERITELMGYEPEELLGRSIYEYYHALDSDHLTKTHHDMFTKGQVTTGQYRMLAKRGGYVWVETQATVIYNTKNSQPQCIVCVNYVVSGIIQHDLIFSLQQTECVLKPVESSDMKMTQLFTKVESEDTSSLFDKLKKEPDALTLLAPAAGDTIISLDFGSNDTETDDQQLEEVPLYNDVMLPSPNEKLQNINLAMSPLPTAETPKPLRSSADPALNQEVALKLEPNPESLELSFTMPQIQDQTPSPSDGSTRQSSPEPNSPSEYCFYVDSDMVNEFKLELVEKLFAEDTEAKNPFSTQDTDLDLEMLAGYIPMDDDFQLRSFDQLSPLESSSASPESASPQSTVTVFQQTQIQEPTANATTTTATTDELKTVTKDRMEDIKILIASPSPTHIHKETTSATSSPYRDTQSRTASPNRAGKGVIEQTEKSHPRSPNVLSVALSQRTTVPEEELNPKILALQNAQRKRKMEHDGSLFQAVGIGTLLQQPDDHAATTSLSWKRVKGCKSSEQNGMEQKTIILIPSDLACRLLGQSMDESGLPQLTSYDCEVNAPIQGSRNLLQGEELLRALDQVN
Protein,promotion of VHL E3 capture via the C-terminal (P564) site [2],promotion of the HIFα/VHL E3 interaction (anti-HA IP with 786-0/VHL extract) [3],promotion of VHL E3 capture (negative) [4],other results
recombinant human type I prolyl 4-hydroxylase (protein) chain 1: HPGFFTSIGQMTDLIHTEKDLVTSLKDYIKAEEDKLEQIKKWAEKLDRLTSTATKDPEGFVGHPVNAFKLMKRLNTEWSELENLVLKDMSDGFISNLTIQRQYFPNDEDQVGAAKALLRLQDTYNLDTDTISKGNLPGVKHKSFLTAEDCFELGKVAYTEADYYHTELWMEQALRQLDEGEISTIDKVSVLDYLSYAVYQQGDLDKALLLTKKLLELDPEHQRANGNLKYFEYIMAKEKDVNKSASDDQSDQKTTPKKKGVAVDYLPERQKYEMLCRGEGIKMTPRRQKKLFCRYHDGNRNPKFILAPAKQEDEWDKPRIIRFHDIISDAEIEIVKDLAKPRLRRATISNPITGDLETVHYRISKSAWLSGYENPVVSRINMRIQDLTGLDVSTAEELQVANYGVGGQYEPHFDFARKDEPDAFKELGTGNRIATWLFYMSDVSAGGATVFPEVGASVWPKKGTAVFWYNLFASGEGDYSTRHAACPVLVGNKWVSNKWLHERGQEFRRPCTLSELE chain 2: not shown,–,–,–,prolyl 4-hydroxylase activity (hydroxylation-coupled decarboxylation of 2-oxoglutarate) [1]: the HIF polypeptide showed no activity
"rat SM-20, full length (protein) MPLGHIMRLDLEKIALEYIVPCLHEVGFCYLDNFLGEVVGDCVLERVKQLHYNGALRDGQLAGPRAGVSKRHLRGDQITWIGGNEEGCEAINFLLSLIDRLVLYCGSRLGKYYVKERSKAMVACYPGNGTGYVRHVDNPNGDGRCITCIYYLNKNWDAKLHGGVLRIFPEGKSFVADVEPIFDRLLFSWSDRRNPHEVQPSYATRYAMTVWYFDAEERAEAKKKFRNLTRKTESALAKD",interaction through the C-terminal site could be promoted by all enzymes,"With full length wild-type HIF-1α, striking activity was observed with rat SM-20 and all three human gene products","No activity at all was observed with a double HIF-1α mutant, P402A P564G, that ablates both hydroxylation sites",–
human PHD3 (protein) MPLGHIMRLDLEKIALEYIVPCLHEVGFCYLDNFLGEVVGDCVLERVKQLHCTGALRDGQLAGPRAGVSKRHLRGDQITWIGGNEEGCEAISFLLSLIDRLVLYCGSRLGKYYVKERSKAMVACYPGNGTGYVRHVDNPNGDGRCITCIYYLNKNWDAKLHGGILRIFPEGKSFIADVEPIFDRLLFFWSDRRNPHEVQPSYATRYAMTVWYFDAEERAEAKKKFRNLTRKTESALTED,interaction through the C-terminal site could be promoted by all enzymes,"With full length wild-type HIF-1α, striking activity was observed with rat SM-20 and all three human gene products","No activity at all was observed with a double HIF-1α mutant, P402A P564G, that ablates both hydroxylation sites",–
human PHD2 (protein) MANDSGGPGGPSPSERDRQYCELCGKMENLLRCSRCRSSFYCCKEHQRQDWKKHKLVCQGSEGALGHGVGPHQHSGPAPPAAVPPPRAGAREPRKAAARRDNASGDAAKGKVKAKPPADPAAAASPCRAAAGGQGSAVAAEAEPGKEEPPARSSLFQEKANLYPPSNTPGDALSPGGGLRPNGQTKPLPALKLALEYIVPCMNKHGICVVDDFLGKETGQQIGDEVRALHDTGKFTDGQLVSQKSDSSKDIRGDKITWIEGKEPGCETIGLLMSSMDDLIRHCNGKLGSYKINGRTKAMVACYPGNGTGYVRHVDNPNGDGRCVTCIYYLNKDWDAKVSGGILRIFPEGKAQFADIEPKFDRLLFFWSDRRNPHEVQPAYATRYAITVWYFDADERARAKVKYLTGEKGVRVELNKPSDSVGKDVF,interaction through the C-terminal site could be promoted by all enzymes,"With full length wild-type HIF-1α, striking activity was observed with rat SM-20 and all three human gene products","No activity at all was observed with a double HIF-1α mutant, P402A P564G, that ablates both hydroxylation sites","promotion of VHL E3 capture via the N-terminal (P402) site [5]: VHL E3 capture was less efficient when only the N-terminal site (P402) was intact, and was only promoted by EGLN2 (PHD1) and EGLN1(PHD2)"
recombinant human type II prolyl 4-hydroxylase (protein) chain 1: EFFTSIGHMTDLIYAEKELVQSLKEYILVEEAKLSKIKSWANKMEALTSKSAADAEGYLAHPVNAYKLVKRLNTDWPALEDLVLQDSAAGFIANLSVQRQFFPTDEDEIGAAKALMRLQDTYRLDPGTISRGELPGTKYQAMLSVDDCFGMGRSAYNEGDYYHTVLWMEQVLKQLDAGEEATTTKSQVLDYLSYAVFQLGDLHRALELTRRLLSLDPSHERAGGNLRYFEQLLEEEREKTLTNQTEAELATPEGIYERPVDYLPERDVYESLCRGEGVKLTPRRQKRLFCRYHHGNRAPQLLIAPFKEEDEWDSPHIVRYYDVMSDEEIERIKEIAKPKLARATVRDPKTGVLTVASYRVSKSSWLEEDDDPVVARVNRRMQHITGLTVKTAELLQVANYGVGGQYEPHFDFSRNDERDTFKHLGTGNRVATFLNYMSDVEAGGATVFPDLGAAIWPKKGTAVFWYNLLRSGEGDYRTRHAACPVLVGCKWVSNKWFHERGQEFLRPCGSTEVD chain 2: not shown,–,–,–,prolyl 4-hydroxylase activity (hydroxylation-coupled decarboxylation of 2-oxoglutarate) [1]: the HIF polypeptide showed no activity
recombinant C. elegans PHY-1 (protein) DLFTSIADMQNLLETERNIPKILDKYIHDEEERLVQLKKLSEEYSKKNEISIENGLKDITNPINAFLLIKRKIFDWKEIESKMNANKAGNVVSSITDDSYGVRYPTADDLSGAAIGLLRLQDTYRLDTKDLADGKIYADQGNYTFSAKDCFEIARAAYNEHDFYHTVMWMEEAQRRLGDEVEPTVEVEDILEYLAFALYKQNNLKHALKLTEELYKMNPTHPRAKGNVKWYEDLLEQEGVRRSDMRKNLPPIQNRRPDSVLGNTERTMYEALCRNEVPVSQKDISRLYCYYKRDRPFLVYAPIKVEIKRFNPLAVLFKDVISDDEVAAIQELAKPKLARATVHDSVTGKLVTATYRISKSAWLKEWEGDVVETVNKRIGYMTNLEMETAEELQIANYGIGGHYDPHFDHAKKEESKSFESLGTGNRIATVLFYMSQPSHGGGTVFTEAKSTILPTKNDALFWYNLYKQGDGNPDTRHAACPVLVGIKWVSNKWIHEKGNEFRRPCGLKSSDYERFVGDLGYGPEPRNAPNVSPNLAKDVWETL,–,–,–,modification of HIF-1 read by HA.VHL-1 capture [6]: had no activity in these assays
recombinant C. elegans PHY-2 (protein) DLFTAIADLQHMLGAEKDVTTIIDQYIEAERARLDDLRRYAHEYVHRNAHAESVGPEFVTNPINAYLLIKRLTTEWKKVENIMLNNKASTFLKNITDNRVRSEVKFPGEEDLSGAATALLRLQDTYSLDTLDLSNGIIGGEKVSNKLSGHDTFEVGRSAYNQKDYYHCLMWMQVALVKIENENPPTIEEWEILEYLAYSLYQQGNVRRALSLTKRLAKIAPNHPRAKGNVKWYEDMLQGKDMVGDLPPIVNKRVEYDGIVERDAYEALCRGEIPPVEPKWKNKLRCYLKRDKPFLKLAPIKVEILRFDPLAVLFKNVIHDSEIEVIKELASPKLKRATVQNSKTGELEHATYRISKSAWLKGDLDPVIDRVNRRIEDFTNLNQATSEELQVANYGLGGHYDPHFDFARKEEKNAFKTLNTGNRIATVLFYMSQPERGGATVFNHLGTAVFPSKNDALFWYNLRRDGEGDLRTRHAACPVLLGVKWVSNKWIHEKGQEFTRPCGLEEEVQENFIGDLSPYANDP,–,–,–,modification of HIF-1 read by HA.VHL-1 capture [6]: had no activity in these assays
